Test results as given in patent publication US7973137.
Several values for one entry are separate records, joined by “and”; a condition that tells them apart may be missing. Identical values can stand only once. Each block holds one substance with its values, some of them ahead of it.

Tests used:
[1] = target: H-2 L^d on RENCA cells, naturally loaded (murine) (UniProt P01897); assay: flow cytometry on RENCA cells cultured with 5-50 units/ml γ-IFN
[2] = target: unloaded H-2 L^d on RMA-S L^d cells (no peptide added) (murine) (UniProt P01897); assay: direct flow cytometry on RMA-S L^d cells without added peptide
[3] = target: p2Ca-loaded H-2 L^d (murine) (UniProt P01897); assay: flow cytometry on cells loaded with a titration of peptide; lower end of the titration
[4] = target: QL9-loaded H-2 L^d (murine) (UniProt P01897); assay: as above
[5] = target: p2Ca-loaded H-2 L^d (murine) (UniProt P01897); assay: flow cytometry on cells loaded with a titration of peptide; upper end of the titration
[6] = target: SIY-loaded H-2 K^bm3 on T2 K^bm3 cells (murine); assay: flow cytometry on peptide-loaded T2 K^bm3 cells
[7] = target: QL9-loaded H-2 L^d (murine) (UniProt P01897); assay: direct flow cytometry on peptide-loaded RMAS-L^d cells
[8] = target: QL9-loaded H-2 L^d (murine) (UniProt P01897); assay: direct flow cytometry on peptide-loaded RMA-S L^d cells, serial dilutions, detected with H57-FITC
[9] = target: dEV-8-loaded H-2 K^bm3 on T2 K^bm3 cells (murine); assay: cell-based or functional assay
[10] = target: SIY-loaded H-2 K^b on T2 K^b cells (murine) (UniProt P01901); assay: cell-based or functional assay
[11] = target: p2Ca-loaded H-2 L^d (murine) (UniProt P01897); assay: cell-based or functional assay
[12] = target: SIY-loaded H-2 K^bm3 on T2 K^bm3 cells (murine); assay: cell-based or functional assay

Sequence of soluble divalent 2C TCR/Ig (A2KF29 whole entry, looked up, tested part not stated): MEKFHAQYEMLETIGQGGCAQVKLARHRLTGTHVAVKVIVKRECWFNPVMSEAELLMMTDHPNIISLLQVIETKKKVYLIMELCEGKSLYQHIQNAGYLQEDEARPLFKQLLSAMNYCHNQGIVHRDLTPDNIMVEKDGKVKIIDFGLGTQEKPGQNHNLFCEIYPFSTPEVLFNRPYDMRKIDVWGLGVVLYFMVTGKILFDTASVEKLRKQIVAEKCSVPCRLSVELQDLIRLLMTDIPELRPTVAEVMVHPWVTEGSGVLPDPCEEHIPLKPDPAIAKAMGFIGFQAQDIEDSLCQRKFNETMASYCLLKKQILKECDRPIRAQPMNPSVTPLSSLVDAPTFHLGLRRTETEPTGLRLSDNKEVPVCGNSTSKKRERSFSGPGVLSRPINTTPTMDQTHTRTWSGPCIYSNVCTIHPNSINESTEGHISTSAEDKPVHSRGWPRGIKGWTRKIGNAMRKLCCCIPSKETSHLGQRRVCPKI
Sequence of 2C TCR on 2C CTL (A2KF29 whole entry): as the sequence (A2KF29 whole entry, looked up, tested part not stated) above
Sequence of SIY-loaded H-2 K^b on T2 K^b cells (murine) (P01901 22-369): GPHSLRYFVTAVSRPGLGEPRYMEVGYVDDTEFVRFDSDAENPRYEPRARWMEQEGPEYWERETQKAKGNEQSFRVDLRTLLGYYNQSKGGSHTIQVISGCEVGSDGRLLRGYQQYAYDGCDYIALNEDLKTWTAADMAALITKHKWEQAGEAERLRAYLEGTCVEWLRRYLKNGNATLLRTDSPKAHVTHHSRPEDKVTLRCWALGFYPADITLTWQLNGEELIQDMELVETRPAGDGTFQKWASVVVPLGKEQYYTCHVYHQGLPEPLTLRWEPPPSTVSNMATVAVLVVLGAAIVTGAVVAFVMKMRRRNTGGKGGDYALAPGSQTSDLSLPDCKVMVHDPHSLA
Sequence of unloaded H-2 L^d on RMA-S L^d cells (no peptide added) (murine) (P01897 25-309): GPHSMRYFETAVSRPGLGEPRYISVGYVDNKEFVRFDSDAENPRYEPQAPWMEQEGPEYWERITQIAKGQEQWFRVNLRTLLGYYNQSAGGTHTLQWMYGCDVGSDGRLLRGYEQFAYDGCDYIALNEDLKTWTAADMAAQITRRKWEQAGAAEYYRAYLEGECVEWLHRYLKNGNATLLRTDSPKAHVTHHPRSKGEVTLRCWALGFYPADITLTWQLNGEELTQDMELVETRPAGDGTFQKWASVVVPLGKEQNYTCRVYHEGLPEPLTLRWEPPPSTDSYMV

- fold increase of serologically reactive H-2 L^d on γ-IFN treated cells over untreated cells [1]: 5 to 6 fold
- fold increase of mean channel fluorescence (cells at 27° C. against cells at 37° C.) [2]: 5 fold
Substance: mAb 30.5.7 (antibody)

- MCF [3]: 1 MCF
- MCF [4]: 1 MCF
- MCF [5]: 600 MCF
- MCF [6]: 36 MCF
- MCF [7]: 3000 MCF
- concentration at which binding was detected [8]: < 1 nM
Substance: soluble divalent 2C TCR/Ig (from UniProt A2KF29)

Substance: 2C TCR on 2C CTL (from UniProt A2KF29)
- 2C CTL mediated lysis of peptide-loaded T2 cells (51Cr release), LD50 of the peptide [9]: 0.5 ng/mL and 1 ng/mL
- 2C CTL mediated lysis of peptide-loaded T2 cells (51Cr release), LD50 of the peptide [10]: 10 ng/mL
- 2C CTL mediated lysis of p2Ca-loaded T2 L^d cells (51Cr release), LD50 of the peptide [11]: 0.5 ng/mL
- 2C CTL mediated lysis of peptide-loaded T2 cells (51Cr release), LD50 of the peptide [12]: 100 ng/mL
